Reference: publication doi:10.1101/2022.09.21.508836 (bioRxiv, 2022)

Target: FIP200 (full length) (human, UniProt Q8TDY2 1-1594)
Assay: pull-down

FIP200 (full length), sequence (Q8TDY2 whole entry): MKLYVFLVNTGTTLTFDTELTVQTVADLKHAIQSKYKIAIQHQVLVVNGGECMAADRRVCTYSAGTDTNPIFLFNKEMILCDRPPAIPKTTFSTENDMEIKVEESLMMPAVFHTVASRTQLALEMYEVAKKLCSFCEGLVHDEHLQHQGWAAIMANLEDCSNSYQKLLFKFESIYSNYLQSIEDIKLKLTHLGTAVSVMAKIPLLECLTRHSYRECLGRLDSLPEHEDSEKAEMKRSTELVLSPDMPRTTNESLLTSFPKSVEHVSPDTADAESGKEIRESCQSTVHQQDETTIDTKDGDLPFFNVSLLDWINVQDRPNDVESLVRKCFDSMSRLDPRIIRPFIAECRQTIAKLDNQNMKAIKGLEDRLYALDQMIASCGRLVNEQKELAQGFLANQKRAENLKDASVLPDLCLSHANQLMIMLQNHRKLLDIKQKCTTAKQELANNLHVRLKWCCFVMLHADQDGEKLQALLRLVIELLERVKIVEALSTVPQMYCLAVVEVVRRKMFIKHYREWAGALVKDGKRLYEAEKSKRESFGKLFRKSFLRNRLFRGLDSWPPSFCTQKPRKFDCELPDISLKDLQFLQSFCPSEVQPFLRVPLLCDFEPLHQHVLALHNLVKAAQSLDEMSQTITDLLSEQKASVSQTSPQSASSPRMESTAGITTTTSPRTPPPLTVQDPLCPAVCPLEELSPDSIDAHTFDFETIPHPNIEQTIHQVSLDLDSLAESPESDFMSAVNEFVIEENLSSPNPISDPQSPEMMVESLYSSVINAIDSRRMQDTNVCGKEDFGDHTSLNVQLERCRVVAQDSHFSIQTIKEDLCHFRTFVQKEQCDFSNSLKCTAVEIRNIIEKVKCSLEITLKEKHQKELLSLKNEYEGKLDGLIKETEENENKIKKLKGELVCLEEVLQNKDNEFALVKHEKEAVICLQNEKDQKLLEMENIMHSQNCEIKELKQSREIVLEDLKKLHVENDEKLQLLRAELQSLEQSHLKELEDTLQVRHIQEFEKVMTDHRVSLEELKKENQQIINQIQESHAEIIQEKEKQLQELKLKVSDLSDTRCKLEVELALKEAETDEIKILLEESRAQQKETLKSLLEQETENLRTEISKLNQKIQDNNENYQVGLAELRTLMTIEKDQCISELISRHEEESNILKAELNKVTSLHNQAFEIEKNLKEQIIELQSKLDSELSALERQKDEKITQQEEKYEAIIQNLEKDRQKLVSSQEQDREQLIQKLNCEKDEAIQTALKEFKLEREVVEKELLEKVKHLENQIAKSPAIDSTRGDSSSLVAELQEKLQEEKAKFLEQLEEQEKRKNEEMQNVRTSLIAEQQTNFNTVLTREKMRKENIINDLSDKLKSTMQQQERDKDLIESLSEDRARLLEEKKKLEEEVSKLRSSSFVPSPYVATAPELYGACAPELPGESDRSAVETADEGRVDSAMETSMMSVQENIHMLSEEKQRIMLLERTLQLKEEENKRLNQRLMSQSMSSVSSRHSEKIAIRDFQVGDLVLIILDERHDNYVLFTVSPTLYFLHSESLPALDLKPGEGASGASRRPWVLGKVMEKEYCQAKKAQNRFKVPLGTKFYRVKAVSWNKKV

binding result: binds
B1: ULK1 (full length) (enzyme)
chain: MEPGRGGTETVGKFEFSRKDLIGHGAFAVVFKGRHREKHDLEVAVKCINKKNLAKSQTLLGKEIKILKELKHENIVALYDFQEMANSVYLVMEYCNGGDLADYLHAMRTLSEDTIRLFLQQIAGAMRLLHSKGIIHRDLKPQNILLSNPAGRRANPNSIRVKIADFGFARYLQSNMMAATLCGSPMYMAPEVIMSQHYDGKADLWSIGTIVYQCLTGKAPFQASSPQDLRLFYEKNKTLVPTIPRETSAPLRQLLLALLQRNHKDRMDFDEFFHHPFLDASPSVRKSPPVPVPSYPSSGSGSSSSSSSTSHLASPPSLGEMQQLQKTLASPADTAGFLHSSRDSGGSKDSSCDTDDFVMVPAQFPGDLVAEAPSAKPPPDSLMCSGSSLVASAGLESHGRTPSPSPPCSSSPSPSGRAGPFSSSRCGASVPIPVPTQVQNYQRIERNLQSPTQFQTPRSSAIRRSGSTSPLGFARASPSPPAHAEHGGVLARKMSLGGGRPYTPSPQVGTIPERPGWSGTPSPQGAEMRGGRSPRPGSSAPEHSPRTSGLGCRLHSAPNLSDLHVVRPKLPKPPTDPLGAVFSPPQASPPQPSHGLQSCRNLRGSPKLPDFLQRNPLPPILGSPTKAVPSFDFPKTPSSQNLLALLARQGVVMTPPRNRTLPDLSEVGPFHGQPLGPGLRPGEDPKGPFGRSFSTSRLTDLLLKAAFGTQAPDPGSTESLQEKPMEIAPSAGFGGSLHPGARAGGTSSPSPVVFTVGSPPSGSTPPQGPRTRMFSAGPTGSASSSARHLVPGPCSEAPAPELPAPGHGCSFADPITANLEGAVTFEAPDLPEETLMEQEHTEILRGLRFTLLFVQHVLEIAALKGSASEAAGGPEYQLQESVVADQISLLSREWGFAEQLVLYLKVAELLSSGLQSAIDQIRAGKLCLSSTVKQVVRRLNELYKASVVSCQGLSLRLQRFFLDKQRLLDRIHSITAERLIFSHAVQMVQSAALDEMFQHREGCVPRYHKALLLLEGLQHMLSDQADIENVTKCKLCIERRLSALLTGICA
